Reference: patent publication US9073974B2, “RGD-containing cyclic peptides” (The Regents of the University of California, priority 2009, dated 2015)
Bridge positions count the residues as written; N and C are the ends. Square brackets hold non-standard residues; d marks the D form. Primed or numbered codes have the meaning given here. Ends that are not written are not given here. * marks the point of attachment. Ebes(3) = 2,2'-ethylenedioxy bis(ethylamine) monosuccinamide, NCCOCCOCCNC(=O)CCC(=O)*; Benzoyl(4-NO2) = O=C(c1ccc([N+](=O)[O-])cc1)*; Pro(5R-Ph) = O=C(O)[C@@H]1CC[C@H](c2ccccc2)N1; d1Nal = N[C@H](Cc1cccc2ccccc12)C(=O)O; dBta = N[C@H](Cc1csc2ccccc12)C(=O)O; Cyclohexylacetyl = O=C(CC1CCCCC1)*; NMeR = CN[C@@H](CCCNC(=N)N)C(=O)O; dCit = NC(=O)NCCC[C@@H](N)C(=O)O; dPen = CC(C)(S)[C@@H](N)C(=O)O; dNMeV = CN[C@@H](C(=O)O)C(C)C; Isobutyryl = CC(C)C(=O)*; Pentanoyl = CCCCC(=O)*

B1: LXW68 (peptide)
peptide: [dC]GRGD[dD][dW][dC]-NH2
modifications: disulfide 1-8; N-terminus assumed
SMILES: N=C(N)NCCC[C@@H]1NC(=O)CNC(=O)[C@H](N)CSSC[C@H](C(N)=O)NC(=O)[C@@H](Cc2c[nH]c3ccccc23)NC(=O)[C@@H](CC(=O)O)NC(=O)[C@H](CC(=O)O)NC(=O)CNC1=O
B2: LXW22 (peptide)
peptide: [dC]GRGD[dD][dNMeV][dC]-NH2
modifications: disulfide 1-8; N-terminus assumed
SMILES: CC(C)[C@@H]1C(=O)N[C@@H](C(N)=O)CSSC[C@@H](N)C(=O)NCC(=O)N[C@@H](CCCNC(=N)N)C(=O)NCC(=O)N[C@@H](CC(=O)O)C(=O)N[C@H](CC(=O)O)C(=O)N1C
B3: LXW57 (peptide)
peptide: {Ebes(3)}-[dC]GRGD[dD][dV][dC]-NH2
modifications: disulfide 1-8
SMILES: CC(C)[C@H]1NC(=O)[C@@H](CC(=O)O)NC(=O)[C@H](CC(=O)O)NC(=O)CNC(=O)[C@H](CCCNC(=N)N)NC(=O)CNC(=O)[C@H](NC(=O)CCC(=O)NCCOCCOCCN)CSSC[C@H](C(N)=O)NC1=O
B4: LXW53 (peptide)
peptide: [dC]G[NMeR]GD[dD][dV][dC]-NH2
modifications: disulfide 1-8; N-terminus assumed
SMILES: CC(C)[C@H]1NC(=O)[C@@H](CC(=O)O)NC(=O)[C@H](CC(=O)O)NC(=O)CNC(=O)[C@H](CCCNC(=N)N)N(C)C(=O)CNC(=O)[C@H](N)CSSC[C@H](C(N)=O)NC1=O
B5: LXW71 (peptide)
peptide: [dC]GRGD[dE][Pro(5R-Ph)][dC]-NH2
modifications: disulfide 1-8; N-terminus assumed
SMILES: N=C(N)NCCC[C@@H]1NC(=O)CNC(=O)[C@H](N)CSSC[C@H](C(N)=O)NC(=O)[C@@H]2CC[C@H](c3ccccc3)N2C(=O)[C@@H](CCC(=O)O)NC(=O)[C@H](CC(=O)O)NC(=O)CNC1=O
B6: LXW21 (peptide)
peptide: [dC]GRGD[dD][dV][dPen]-NH2
modifications: disulfide 1-8; N-terminus assumed
SMILES: CC(C)[C@H]1NC(=O)[C@@H](CC(=O)O)NC(=O)[C@H](CC(=O)O)NC(=O)CNC(=O)[C@H](CCCNC(=N)N)NC(=O)CNC(=O)[C@H](N)CSSC(C)(C)[C@H](C(N)=O)NC1=O
B7: LXW78 (peptide)
peptide: Cyclohexylacetyl-[dC]GRGD[dD][dV][dC]-NH2
modifications: disulfide 1-8
SMILES: CC(C)[C@H]1NC(=O)[C@@H](CC(=O)O)NC(=O)[C@H](CC(=O)O)NC(=O)CNC(=O)[C@H](CCCNC(=N)N)NC(=O)CNC(=O)[C@H](NC(=O)CC2CCCCC2)CSSC[C@H](C(N)=O)NC1=O
B8: LXW12 (peptide)
peptide: Ac-[dC]GRGD[dD][dV][dC]-NH2
modifications: disulfide 1-8
SMILES: CC(=O)N[C@@H]1CSSC[C@H](C(N)=O)NC(=O)[C@@H](C(C)C)NC(=O)[C@@H](CC(=O)O)NC(=O)[C@H](CC(=O)O)NC(=O)CNC(=O)[C@H](CCCNC(=N)N)NC(=O)CNC1=O
B9: LXW26 (peptide)
peptide: [dC]GRGD[dD][dI][dC]-NH2
modifications: disulfide 1-8; N-terminus assumed
SMILES: CC[C@@H](C)[C@H]1NC(=O)[C@@H](CC(=O)O)NC(=O)[C@H](CC(=O)O)NC(=O)CNC(=O)[C@H](CCCNC(=N)N)NC(=O)CNC(=O)[C@H](N)CSSC[C@H](C(N)=O)NC1=O
B10: LXW82 (peptide)
peptide: {Benzoyl(4-NO2)}-[dC]GRGD[dD][dV][dC]-NH2
modifications: disulfide 1-8
SMILES: CC(C)[C@H]1NC(=O)[C@@H](CC(=O)O)NC(=O)[C@H](CC(=O)O)NC(=O)CNC(=O)[C@H](CCCNC(=N)N)NC(=O)CNC(=O)[C@H](NC(=O)c2ccc([N+](=O)[O-])cc2)CSSC[C@H](C(N)=O)NC1=O
B11: LXW76 (peptide)
peptide: Isobutyryl-[dC]GRGD[dD][dV][dC]-NH2
modifications: disulfide 1-8
SMILES: CC(C)C(=O)N[C@@H]1CSSC[C@H](C(N)=O)NC(=O)[C@@H](C(C)C)NC(=O)[C@@H](CC(=O)O)NC(=O)[C@H](CC(=O)O)NC(=O)CNC(=O)[C@H](CCCNC(=N)N)NC(=O)CNC1=O
B12: LXW47 (peptide)
peptide: CGRGD[dD][d1Nal]C-NH2
modifications: disulfide 1-8; N-terminus assumed
SMILES: N=C(N)NCCC[C@@H]1NC(=O)CNC(=O)[C@@H](N)CSSC[C@@H](C(N)=O)NC(=O)[C@@H](Cc2cccc3ccccc23)NC(=O)[C@@H](CC(=O)O)NC(=O)[C@H](CC(=O)O)NC(=O)CNC1=O
notes: also called CGRGDd-DNal1-C
B13: LXW73 (peptide)
peptide: [dC]GRGD[dCit][dBta][dC]-NH2
modifications: disulfide 1-8; N-terminus assumed
SMILES: N=C(N)NCCC[C@@H]1NC(=O)CNC(=O)[C@H](N)CSSC[C@H](C(N)=O)NC(=O)[C@@H](Cc2csc3ccccc23)NC(=O)[C@@H](CCCNC(N)=O)NC(=O)[C@H](CC(=O)O)NC(=O)CNC1=O
B14: LXW77 (peptide)
peptide: Pentanoyl-[dC]GRGD[dD][dV][dC]-NH2
modifications: disulfide 1-8
SMILES: CCCCC(=O)N[C@@H]1CSSC[C@H](C(N)=O)NC(=O)[C@@H](C(C)C)NC(=O)[C@@H](CC(=O)O)NC(=O)[C@H](CC(=O)O)NC(=O)CNC(=O)[C@H](CCCNC(=N)N)NC(=O)CNC1=O

Tests used:
αvβ3 integrin [1] = target: T1, αvβ3 integrin (human, UniProt P06756 31-1048; P05106 27-788); assay: flow cytometry, competition with biotinylated LXW7 on αvβ3-K562 cells; +++ = IC50 <1 µM
T1 construct: whole, on cells; Same entry used for αvβ3-K562, U-87 MG and A375M cells; also called αvβ3-K562; αvβ3 transfected K562 cells
T1 sequence (P06756 31-1048, chain 1 of 2): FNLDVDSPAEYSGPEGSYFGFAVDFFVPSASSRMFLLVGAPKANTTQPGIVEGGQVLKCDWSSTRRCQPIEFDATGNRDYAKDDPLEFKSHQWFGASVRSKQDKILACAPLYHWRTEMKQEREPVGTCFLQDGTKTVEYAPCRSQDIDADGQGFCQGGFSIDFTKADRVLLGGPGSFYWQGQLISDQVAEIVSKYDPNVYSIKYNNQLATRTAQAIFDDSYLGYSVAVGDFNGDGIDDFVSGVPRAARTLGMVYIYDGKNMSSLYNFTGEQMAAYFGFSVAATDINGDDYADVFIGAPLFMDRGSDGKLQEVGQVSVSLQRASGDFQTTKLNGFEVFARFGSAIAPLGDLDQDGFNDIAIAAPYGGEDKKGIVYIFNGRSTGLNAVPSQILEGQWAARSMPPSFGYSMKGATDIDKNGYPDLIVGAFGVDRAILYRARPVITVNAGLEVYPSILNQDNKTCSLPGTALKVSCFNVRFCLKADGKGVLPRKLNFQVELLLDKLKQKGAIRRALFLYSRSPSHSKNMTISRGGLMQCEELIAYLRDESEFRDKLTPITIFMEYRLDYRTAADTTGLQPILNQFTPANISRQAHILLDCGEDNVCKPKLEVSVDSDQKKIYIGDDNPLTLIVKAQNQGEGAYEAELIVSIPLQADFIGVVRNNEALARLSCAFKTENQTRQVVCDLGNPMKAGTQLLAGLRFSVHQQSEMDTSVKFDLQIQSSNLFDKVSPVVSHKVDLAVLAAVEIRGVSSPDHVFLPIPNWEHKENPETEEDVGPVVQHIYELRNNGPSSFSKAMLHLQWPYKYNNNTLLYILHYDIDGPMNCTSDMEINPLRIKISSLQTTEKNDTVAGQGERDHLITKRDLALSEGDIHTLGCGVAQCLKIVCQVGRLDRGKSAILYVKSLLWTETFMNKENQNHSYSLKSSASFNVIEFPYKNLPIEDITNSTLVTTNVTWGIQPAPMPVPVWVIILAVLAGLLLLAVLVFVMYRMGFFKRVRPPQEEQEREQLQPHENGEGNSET
T1 sequence (P05106 27-788, chain 2 of 2): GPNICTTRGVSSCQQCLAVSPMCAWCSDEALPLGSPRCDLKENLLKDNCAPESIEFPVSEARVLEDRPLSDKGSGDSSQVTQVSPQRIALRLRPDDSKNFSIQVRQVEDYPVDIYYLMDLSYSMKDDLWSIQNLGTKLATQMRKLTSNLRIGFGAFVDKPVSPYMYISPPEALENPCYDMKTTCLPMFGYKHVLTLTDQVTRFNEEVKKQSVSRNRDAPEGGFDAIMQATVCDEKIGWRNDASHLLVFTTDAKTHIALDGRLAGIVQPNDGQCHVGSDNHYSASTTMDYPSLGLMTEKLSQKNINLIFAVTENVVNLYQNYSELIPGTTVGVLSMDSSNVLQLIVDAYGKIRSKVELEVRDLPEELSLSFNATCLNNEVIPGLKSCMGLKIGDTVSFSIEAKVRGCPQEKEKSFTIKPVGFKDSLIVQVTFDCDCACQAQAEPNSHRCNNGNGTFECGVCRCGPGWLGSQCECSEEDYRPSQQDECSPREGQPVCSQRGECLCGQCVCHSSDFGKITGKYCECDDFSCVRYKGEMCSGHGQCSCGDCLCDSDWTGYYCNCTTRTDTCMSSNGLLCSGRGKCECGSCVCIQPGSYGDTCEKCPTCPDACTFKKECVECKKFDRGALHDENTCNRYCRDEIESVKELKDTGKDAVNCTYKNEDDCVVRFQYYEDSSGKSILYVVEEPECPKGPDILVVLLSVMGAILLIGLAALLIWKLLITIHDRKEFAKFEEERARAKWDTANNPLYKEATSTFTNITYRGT

αvβ3 integrin [2] = target: T1, αvβ3 integrin; assay: flow cytometry, competition with biotinylated LXW7 on αvβ3-K562 cells; ++ = IC50 1-10 µM

| Binder | IC50 (αvβ3 integrin [1]) | IC50 (αvβ3 integrin [2]) |
| --- | --- | --- |
| B1 | < 1000 nM | – |
| B2 | < 1000 nM | – |
| {3‑amino propanoyl}-[dC]GRGD[dD][dV][dC]-NH2 (disulfide 1-8) [LXW56] | < 1000 nM | – |
| B3 | < 1000 nM | – |
| B4 | < 1000 nM | – |
| {3‑phenyl propionyl}-[dC]GRGD[dD][dV][dC]-NH2 (disulfide 1-8) [LXW80] | < 1000 nM | – |
| B5 | – | 1000 to 10000 nM |
| B6 | – | 1000 to 10000 nM |
| B7 | – | 1000 to 10000 nM |
| B8 | < 1000 nM | – |
| {p‑chlorophenyl acetyl}-[dC]GRGD[dD][dV][dC]-NH2 (disulfide 1-8) [LXW81] | – | 1000 to 10000 nM |
| B9 | – | 1000 to 10000 nM |
| B10 | – | 1000 to 10000 nM |
| B11 | < 1000 nM | – |
| B12 | – | 1000 to 10000 nM |
| B13 | – | 1000 to 10000 nM |
| {5‑bromo‑2‑furoyl}-[dC]GRGD[dD][dV][dC]-NH2 (disulfide 1-8) [LXW90] | – | 1000 to 10000 nM |
| B14 | – | 1000 to 10000 nM |
| {biphenyl‑4‑carbonyl}-[dC]GRGD[dD][dV][dC]-NH2 (disulfide 1-8) [LXW84] | < 1000 nM | – |
| {3,5‑dihydroxy benzoyl}-[dC]GRGD[dD][dV][dC]-NH2 (disulfide 1-8) [LXW83] | < 1000 nM | – |
| nicotinyl-[dC]GRGD[dD][dV][dC]-NH2 (disulfide 1-8) [LXW92] | – | 1000 to 10000 nM |
